Where two headings read alike, the source gives them in different places. Primed or numbered codes have the meaning given here. Where no end group is shown, it is not given here. [ ]: non-standard residue; d: D form. Fc(3) = Fc: non-antigen-binding fragment of an antibody from proteolytic digestion of a whole antibody (vehicle); Fc(4) = non-antigen-binding fragment of an antibody (from proteolytic digestion of a whole antibody); Fc = immunoglobulin Fc domain fused to the peptide (peptibody); Fc(7) = Fc domain, peptide fused N- or C-terminal to it; Fc″ = Fc domain of the peptibody fusion
B1: Con1-2 (C) (peptide)
chain: M[Fc]GGGGGAQQTWDDPCMHILGPVTWRRCILE
modifications: not fully specified (bridges); cysteine pairing not given here; also: Fc fusion domain at position 2

Key:
human Ang-2 [1] = biological target: T1, human Ang-2 (human, UniProt O15123); test: competition ELISA vs Tie-2
T1 chain: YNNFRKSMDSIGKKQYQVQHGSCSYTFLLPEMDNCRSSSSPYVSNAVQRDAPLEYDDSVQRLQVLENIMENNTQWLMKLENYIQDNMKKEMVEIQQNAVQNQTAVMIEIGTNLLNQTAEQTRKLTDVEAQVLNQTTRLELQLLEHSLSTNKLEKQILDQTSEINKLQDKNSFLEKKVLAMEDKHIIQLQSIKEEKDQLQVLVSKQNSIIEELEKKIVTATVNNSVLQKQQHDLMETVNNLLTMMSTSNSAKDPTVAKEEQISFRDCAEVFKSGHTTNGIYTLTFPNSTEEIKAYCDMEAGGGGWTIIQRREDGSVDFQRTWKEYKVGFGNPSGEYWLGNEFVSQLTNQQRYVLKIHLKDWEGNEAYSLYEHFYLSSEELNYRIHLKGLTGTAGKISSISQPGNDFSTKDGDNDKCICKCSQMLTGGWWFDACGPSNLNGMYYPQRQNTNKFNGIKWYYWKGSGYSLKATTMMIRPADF

human Ang-2 [2] = biological target: T1, human Ang-2; test: competition ELISA vs Tie-2

Binder	IC50 (human Ang-2 [1]) [nM]	IC50 (human Ang-2 [2]) [nM]
MGAQQKFKPLDELEQTLYEQWTLQQRLEGGGGG-Fc [L1-C1 (N)]	0.56	
M[Fc(7)]GGGGGAQGFEYCDGMEDPFTFGCDKQTLE (not fully specified (bridges); cysteine pairing not given here) [12-9-1 (C)]	1.84	
MGAQEDYMPLDALDAQLYEQFILLHGLEGGGGG-{Fc(3)} [L1-20 (N)]	0.09	
MGAQVKYKPLDELDEWLYHQFTLHHQLEGGGGG[Fc(3)] [L1-17 (N)]	0.08	
MGAQVKFKPLDALEQTLYEHWMFQQALEGGGGG-Fc [L1-4 (N)]	0.08	
M[Fc(7)]GGGGGAQLQEWCEGVEDPFTFGCEKQRLE (not fully specified (bridges); cysteine pairing not given here) [12-9-3 (C)]	0.81	
MGAQQKFQPLDELEETLYKQWTLQQRLEGGGGG[Fc(3)] [L1-16 (N)]	0.11	
MGAQTKFNPLDELEQTLYEQWTLQHQLEGGGGG-{Fc″} [L1-3 (N)]	0.16	
MGAQQKYQPLDELDKTLYDQFMLQQGLEGGGGG[Fc(3)] [L1-15 (N)]	0.04	
M[Fc(7)]GGGGGAQHQEYCEGMEDPFTFGCEYQGLE (not fully specified (bridges); cysteine pairing not given here) [12-9-6 (C)]	0.95	
M[Fc(7)]GGGGGAQFDYCEGVEDPFTFGCDNHLE (not fully specified (bridges); cysteine pairing not given here) [12-9 (C)]	15	
M[Fc(7)]GGGGGAQAQDYCEGMEDPFTFGCEMQKLE (not fully specified (bridges); cysteine pairing not given here) [12-9-4 (C)]	2.05	
MGAQSKFKPLDELEQTLYEQWTLQHALEGGGGG-Fc [L1-9 (N)]	1.62	
MGAQTNYKPLDELDATLYEHWILQHSLEGGGGG[Fc(7)] [AC6-L1 (N)]	0.03	
B1	> 1000	
MGAQYKFTPLDDLEQTLYEQWTLQHVLEGGGGG[Fc(3)] [L1-12 (N)]	0.08	
M[Fc(7)]GGGGGAQKLEYCDGMEDPFTQGCDNQSLE (not fully specified (bridges); cysteine pairing not given here) [12-9-2 (C)]	8.42	
M[Fc(7)]GGGGGAQLQDYCEGVEDPFTFGCEKQRLE (not fully specified (bridges); cysteine pairing not given here) [12-9-C1 (C)]	2.68	
MGAQTKFQPLDELDQTLYEQWTLQQRLEGGGGG-Fc [L1-C2 (N)]	0.05	
MGAQLNFTPLDELEQTLYEQWTLQQSLEGGGGG[Fc(3)] [L1-2 (N)]	0.04	

Binder	IC50 (human Ang-2 [1]) [nM]	IC50 (human Ang-2 [2]) [nM]
M[Fc(7)]GGGGGAQLQDYCEGVEDPFTFGCENQRLE (not fully specified (bridges); cysteine pairing not given here) [12-9-C2 (C)]	1.41	
M[Fc(7)]GGGGGAQFGWSHGCEWDPWTCEHMGSTLE (not fully specified (bridges); cysteine pairing not given here) [AC2-Con4 (C)]		0.52
M[Fc(7)]GGGGGAQVLGGQGCEWDPWTCRLLQGWLE (not fully specified (bridges); cysteine pairing not given here) [AC4-Con4 (C)]		1.54
M[Fc(7)]GGGGGAQRAPQEDCEWDPWTCAHMDIKLE (not fully specified (bridges); cysteine pairing not given here) [Con4-25 (C)]		0.31
M[Fc(7)]GGGGGAQTSQRVGCEWDPWTCQHLTYTLE (not fully specified (bridges); cysteine pairing not given here) [Con4-23 (C)]		9.88
M[Fc(7)]GGGGGAQAVGSQTCEWDPWTCAHLVEVLE (not fully specified (bridges); cysteine pairing not given here) [Con4-16 (C)]		6.94
M[Fc(7)]GGGGGAQMFLPNECQWDPWTCSNLPEALE (not fully specified (bridges); cysteine pairing not given here) [Con4-14 (C)]		> 1000
M[Fc]GGGGGAQPVNQEDCEWDPWTCEHMPPMLE (not fully specified; cysteine pairing not given here) [Con4-39 (C)]		0.3
M[Fc(4)]GGGGGAQWAQQEECAWDPWTCDHMVGLLE (not fully specified; cysteine pairing not given here) [Con4-45 (C)]		0.48
M[Fc(7)]GGGGGAQTKGKSVCQWDPWTCSHMQSGLE (not fully specified (bridges); cysteine pairing not given here) [Con4-21 (C)]		3.21
M[Fc(7)]GGGGGAQGPRISTCQWDPWTCEHMDQLLE (not fully specified (bridges); cysteine pairing not given here) [Con4-17 (C)]		0.96
M[Fc(7)]GGGGGAQTQGLHQCEWDPWTCKVLWPSLE (not fully specified (bridges); cysteine pairing not given here) [Con4-10 (C)]		86.6
M[Fc(7)]GGGGGAQMGGAGRCEWDPWTCQLLQGWLE (not fully specified (bridges); cysteine pairing not given here) [Con4-13 (C)]		> 1000
M[Fc(7)]GGGGGAQRPEDMCSQWDPWTWHLQGYCLE (not fully specified (bridges); cysteine pairing not given here) [Con4-26 (C)]		> 1000
M[Fc]GGGGGAQLPGQEDCEWDPWTCEHMVRSLE (not fully specified; cysteine pairing not given here) [Con4-37 (C)]		0.49
M[Fc(4)]GGGGGAQLRHQEGCEWDPWTCEHMFDWLE (not fully specified; cysteine pairing not given here) [Con4-42 (C)]		0.17
M[Fc(4)]GGGGGAQTTIGSMCEWDPWTCAHMQGGLE (not fully specified (bridges); cysteine pairing not given here) [Con4-C1 (C)]		2.75
M[Fc(4)]GGGGGAQSISHEECEWDPWTCEHMQVGLE (not fully specified; cysteine pairing not given here) [Con4-43 (C)]		0.18
M[Fc(7)]GGGGGAQNRLQEVCEWDPWTCEHMENVLE (not fully specified (bridges); cysteine pairing not given here) [Con4-31 (C)]		0.16
M[Fc(4)]GGGGGAQQHWQEECEWDPWTCDHMPSKLE (not fully specified; cysteine pairing not given here) [Con4-46 (C)]		0.26
